The source of these data is FireProtDB (doi:10.1074/jbc.273.1.167).

For the data set the following is noted: Bos taurus, pH 7, Thermal, DSC, phosphate 10 mM, transition: 3, reversible: no, whole UniProt chain shown.

Where “and” joins values, the source holds several entries; their conditions need not be identical. Equal entries are not always repeated.

B1: Tubulin--tyrosine ligase wild type, P38584 (protein)
chain: MYTFVVRDENSSVYAEVSRLLLATGHWKRLRRDNPRFNLMLGERNRLPFGRLGHEPGLMQLVNYYRGADKLCRKASLVKLIKTSPELAESCTWFPESYVIYPTNLKTPVAPAQDGIHPPLHSSRTDEREFFLASYNRKKEEGEGNVWIAKSSAGAKGEGILISSDATELLDFIDNQGQVHVIQKYLERPLLLEPGHRKFDIRSWVLVDHQFNIYLYREGVLRTASEPYHMDNFQDKTCHLTNHCIQKEYSKNYGKYEEGNEMFFEAFNRYLTSALNITLESSILLQIKHIIRSCLMSVEPAISTKHLPYQSFQLFGFDFMVDEELKVWLIEVNGAPACAQKLYAELCQGIVDIAIASVFPPPDAEQQPPQPATFIKL
As usually defined, the Tm is the temperature at which the thermal transition is half complete. For the protein B1, the Tm is, setting by setting: (Mg++ 30 nM) 51.1 °C; (Mg++ 182 nM) 49.9 °C; (Mg++ 2.3 micro M) 54.6 °C; (Mg++ 4.5 micro M) 54.8 °C; (Mg++ 160 micro M) 55.8 °C; (Mg++ 280 micro M) 55.6 °C and 54.2 °C. The “unfolding enthalpy (calorimetric)” value runs as follows: (Mg++ 30 nM) 160 kcal/mol; (Mg++ 35 nM) 38 kcal/mol and 84 kcal/mol; (Mg++ 40 nM) 31 kcal/mol and 84 kcal/mol; (Mg++ 182 nM) 158 kcal/mol; (Mg++ 2.3 micro M) 173 kcal/mol; (Mg++ 4.5 micro M) 173 kcal/mol. The “unfolding enthalpy (calorimetric)” value by setting is: (Mg++ 160 micro M) 150 kcal/mol; (Mg++ 280 micro M) 186 kcal/mol and 200 kcal/mol.
